Data reported in PMC9482650, “Quantitative fragmentomics allow affinity mapping of interactomes” (Nature Communications, 2022).

T1: APBA1_2, Q02410
T1 sequence (Q02410 742-832, limits assumed, looked up): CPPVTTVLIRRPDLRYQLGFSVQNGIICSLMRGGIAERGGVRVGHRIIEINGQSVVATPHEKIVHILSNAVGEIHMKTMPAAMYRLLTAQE

T2: DFNB31_3, Q9P202
T2 sequence (Q9P202 811-907, limits assumed, looked up): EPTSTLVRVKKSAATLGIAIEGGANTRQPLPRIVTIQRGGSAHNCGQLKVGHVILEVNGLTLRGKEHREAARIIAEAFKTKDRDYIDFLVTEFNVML

T3: GRIP1_7, Q9Y3R0
T3 sequence (Q9Y3R0 999-1096, limits assumed, looked up): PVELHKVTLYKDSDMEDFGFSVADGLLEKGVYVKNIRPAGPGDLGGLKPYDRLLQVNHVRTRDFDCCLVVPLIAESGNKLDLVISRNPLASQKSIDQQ

T4: SYNJ2BP, P57105
T4 sequence (P57105 8-110, limits assumed, looked up): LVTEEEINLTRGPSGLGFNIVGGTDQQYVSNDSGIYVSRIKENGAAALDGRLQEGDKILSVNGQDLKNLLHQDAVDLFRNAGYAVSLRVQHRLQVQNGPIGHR

T5: MPP6, Q9NZW5
T5 sequence (Q9NZW5 125-219, limits assumed, looked up): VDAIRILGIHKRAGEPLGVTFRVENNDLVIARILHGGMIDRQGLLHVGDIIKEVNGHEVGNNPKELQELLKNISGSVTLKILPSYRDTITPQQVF

T6: PTPN13_1, Q12923
T6 sequence (Q12923 1088-1188, limits assumed, looked up): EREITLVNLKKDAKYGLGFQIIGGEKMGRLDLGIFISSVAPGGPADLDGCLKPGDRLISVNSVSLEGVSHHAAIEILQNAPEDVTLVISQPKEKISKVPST

T7: PDZD7_3, Q9H5P4
T7 sequence (Q9H5P4 857-944, limits assumed, looked up): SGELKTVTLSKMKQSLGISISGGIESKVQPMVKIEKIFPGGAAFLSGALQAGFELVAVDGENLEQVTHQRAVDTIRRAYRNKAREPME

T8: APBA3_1, O96018
T8 sequence (O96018 389-490, limits assumed, looked up): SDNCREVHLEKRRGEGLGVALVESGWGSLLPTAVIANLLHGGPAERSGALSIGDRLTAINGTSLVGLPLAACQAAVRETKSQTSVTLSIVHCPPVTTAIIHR

T9: DFNB31_1, Q9P202
T9 sequence (Q9P202 135-233, limits assumed, looked up): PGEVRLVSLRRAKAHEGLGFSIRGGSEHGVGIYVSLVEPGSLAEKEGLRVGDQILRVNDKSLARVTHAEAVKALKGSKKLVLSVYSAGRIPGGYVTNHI

T10: MPDZ_12, O75970
T10 sequence (O75970 1857-1958, limits assumed, looked up): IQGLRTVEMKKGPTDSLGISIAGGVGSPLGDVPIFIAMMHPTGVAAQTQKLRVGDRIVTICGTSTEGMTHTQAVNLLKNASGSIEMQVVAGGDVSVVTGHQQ

T11: GRIP1_3, Q9Y3R0
T11 sequence (Q9Y3R0 247-346, limits assumed, looked up): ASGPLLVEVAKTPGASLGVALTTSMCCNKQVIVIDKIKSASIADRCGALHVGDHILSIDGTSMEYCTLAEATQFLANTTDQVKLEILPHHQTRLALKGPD

T12: SHANK1, Q9Y566
T12 sequence (Q9Y566 658-767, limits assumed, looked up): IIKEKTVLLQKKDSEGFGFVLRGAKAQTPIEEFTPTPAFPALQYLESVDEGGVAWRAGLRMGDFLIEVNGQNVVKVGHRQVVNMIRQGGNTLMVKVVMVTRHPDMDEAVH


How the values were obtained:
Assay in all cases: holdup assay
Parameters in all cases: key: below the threshold = too weak to quantify, mostly under pKd 3.1 to 4
Details in all cases: plain residues with an end cap or a label only (N-terminal biotin on a linker: ado-ado)
APBA1_2, Q02410 = molecular target: T1, APBA1_2, Q02410
DFNB31_3, Q9P202 = molecular target: T2, DFNB31_3, Q9P202
NHERF2_2, Q15599 = molecular target: NHERF2_2, Q15599
DLG1_1, Q12959 = molecular target: DLG1_1, Q12959
DLG4_3, P78352 = molecular target: DLG4_3, P78352
GRID2IP_1, A4D2P6 = molecular target: GRID2IP_1, A4D2P6
DLG5_1, Q8TDM6 = molecular target: DLG5_1, Q8TDM6
AHNAK1, Q09666 = molecular target: AHNAK1, Q09666
MAGI1_2, Q96QZ7 = molecular target: MAGI1_2, Q96QZ7
GRIP1_7, Q9Y3R0 = molecular target: T3, GRIP1_7, Q9Y3R0
SYNJ2BP, P57105 = molecular target: T4, SYNJ2BP, P57105
Inadl_8, Q8NI35 = molecular target: Inadl_8, Q8NI35
MPP6, Q9NZW5 = molecular target: T5, MPP6, Q9NZW5
PTPN13_1, Q12923 = molecular target: T6, PTPN13_1, Q12923
PDZD7_3, Q9H5P4 = molecular target: T7, PDZD7_3, Q9H5P4
GRID2IP_2, A4D2P6 = molecular target: GRID2IP_2, A4D2P6
TJP1_3, Q07157 = molecular target: TJP1_3, Q07157
APBA3_1, O96018 = molecular target: T8, APBA3_1, O96018
DFNB31_1, Q9P202 = molecular target: T9, DFNB31_1, Q9P202
PDZRN4_1, Q6ZMN7 = molecular target: PDZRN4_1, Q6ZMN7
DLG4_2, P78352 = molecular target: DLG4_2, P78352
MPDZ_12, O75970 = molecular target: T10, MPDZ_12, O75970
MAGI1_1, Q96QZ7 = molecular target: MAGI1_1, Q96QZ7
GRIP1_3, Q9Y3R0 = molecular target: T11, GRIP1_3, Q9Y3R0
FRMPD2_3, Q68DX3 = molecular target: FRMPD2_3, Q68DX3
SHANK1, Q9Y566 = molecular target: T12, SHANK1, Q9Y566

Sequence of FRMPD2_3, Q68DX3 (Q68DX3 1073-1166): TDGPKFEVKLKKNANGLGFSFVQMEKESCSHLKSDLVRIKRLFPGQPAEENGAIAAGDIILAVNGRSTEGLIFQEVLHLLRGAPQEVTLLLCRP
Sequence of DLG4_2, P78352 (P78352 155-259): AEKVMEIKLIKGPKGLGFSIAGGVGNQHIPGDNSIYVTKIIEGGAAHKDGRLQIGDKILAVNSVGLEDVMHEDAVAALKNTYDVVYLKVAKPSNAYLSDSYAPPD
Sequence of PDZRN4_1, Q6ZMN7 (Q6ZMN7 213-318): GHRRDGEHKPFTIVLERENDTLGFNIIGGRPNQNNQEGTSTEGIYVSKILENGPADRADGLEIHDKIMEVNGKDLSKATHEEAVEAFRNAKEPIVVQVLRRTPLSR
Sequence of NHERF2_2, Q15599 (Q15599 142-238): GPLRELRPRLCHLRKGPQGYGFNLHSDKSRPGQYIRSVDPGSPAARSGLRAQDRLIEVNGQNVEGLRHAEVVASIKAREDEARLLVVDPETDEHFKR
Sequence of MAGI1_1, Q96QZ7 (Q96QZ7 1-106): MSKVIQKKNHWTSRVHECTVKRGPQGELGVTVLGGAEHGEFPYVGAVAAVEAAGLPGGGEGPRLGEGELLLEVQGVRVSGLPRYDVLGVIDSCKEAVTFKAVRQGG
Sequence of GRID2IP_1, A4D2P6 (A4D2P6 1-87): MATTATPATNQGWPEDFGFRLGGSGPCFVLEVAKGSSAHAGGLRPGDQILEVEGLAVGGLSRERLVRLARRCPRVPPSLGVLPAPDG
Sequence of GRID2IP_2, A4D2P6 (A4D2P6 272-370): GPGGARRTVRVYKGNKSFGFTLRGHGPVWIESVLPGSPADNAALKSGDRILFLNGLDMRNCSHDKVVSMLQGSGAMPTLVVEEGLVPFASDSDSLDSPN
Sequence of AHNAK1, Q09666 (Q09666 4-100): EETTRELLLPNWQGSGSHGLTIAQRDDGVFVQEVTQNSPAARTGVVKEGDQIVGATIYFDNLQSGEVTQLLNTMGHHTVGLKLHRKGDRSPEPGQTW
Sequence of DLG4_3, P78352 (P78352 306-403): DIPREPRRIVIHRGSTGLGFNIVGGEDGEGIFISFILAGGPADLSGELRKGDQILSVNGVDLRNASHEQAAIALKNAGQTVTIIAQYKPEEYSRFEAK
Sequence of Inadl_8, Q8NI35 (Q8NI35 1425-1530): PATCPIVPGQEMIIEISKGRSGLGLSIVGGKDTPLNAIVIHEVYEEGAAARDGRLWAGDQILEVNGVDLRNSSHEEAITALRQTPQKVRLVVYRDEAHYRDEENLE
Sequence of DLG5_1, Q8TDM6 (Q8TDM6 617-713): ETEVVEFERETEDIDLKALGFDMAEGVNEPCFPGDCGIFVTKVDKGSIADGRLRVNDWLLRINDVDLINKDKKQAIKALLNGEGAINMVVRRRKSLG
Sequence of TJP1_3, Q07157 (Q07157 416-512): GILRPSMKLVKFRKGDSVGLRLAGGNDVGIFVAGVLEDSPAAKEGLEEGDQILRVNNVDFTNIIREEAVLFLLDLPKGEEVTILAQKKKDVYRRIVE
Sequence of MAGI1_2, Q96QZ7 (Q96QZ7 456-580): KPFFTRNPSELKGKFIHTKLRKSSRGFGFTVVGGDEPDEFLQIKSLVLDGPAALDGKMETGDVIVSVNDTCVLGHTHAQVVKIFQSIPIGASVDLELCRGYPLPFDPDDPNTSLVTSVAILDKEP

Row | Binder | pKd (APBA1_2, Q02410) | pKd (DFNB31_3, Q9P202) | pKd (NHERF2_2, Q15599) | pKd (DLG1_1, Q12959) | pKd (DLG4_3, P78352) | pKd (GRID2IP_1, A4D2P6) | pKd (DLG5_1, Q8TDM6) | pKd (AHNAK1, Q09666) | pKd (MAGI1_2, Q96QZ7) | pKd (GRIP1_7, Q9Y3R0) | pKd (SYNJ2BP, P57105) | pKd (Inadl_8, Q8NI35) | pKd (MPP6, Q9NZW5) | pKd (PTPN13_1, Q12923) | pKd (PDZD7_3, Q9H5P4) | pKd (GRID2IP_2, A4D2P6) | pKd (TJP1_3, Q07157) | pKd (APBA3_1, O96018) | pKd (DFNB31_1, Q9P202) | pKd (PDZRN4_1, Q6ZMN7) | further results
1 | GNDPDRGTSI [GRID2, O43424] | 3.65 | below the threshold | 3.66 | below the threshold | below the threshold | below the threshold | below the threshold | below the threshold | below the threshold | below the threshold | 4.72 | below the threshold | below the threshold | below the threshold | 4.1 | 4.16 | below the threshold | below the threshold | 4.46 | 3.49 | pKd (DLG4_2, P78352): below the threshold; pKd (MPDZ_12, O75970): below the threshold; pKd (MAGI1_1, Q96QZ7): below the threshold; pKd (GRIP1_3, Q9Y3R0): below the threshold; pKd (FRMPD2_3, Q68DX3): below the threshold; pKd (SHANK1, Q9Y566): 3.54
2 | DFKHTKSFII [JAM2, P57087] | below the threshold | 3.71 | below the threshold | below the threshold | below the threshold | below the threshold | below the threshold | below the threshold | below the threshold | below the threshold | below the threshold | below the threshold | below the threshold | 3.52 | below the threshold | below the threshold | below the threshold | below the threshold | below the threshold | below the threshold | pKd (DLG4_2, P78352): below the threshold; pKd (MPDZ_12, O75970): below the threshold; pKd (MAGI1_1, Q96QZ7): below the threshold; pKd (GRIP1_3, Q9Y3R0): below the threshold; pKd (FRMPD2_3, Q68DX3): below the threshold; pKd (SHANK1, Q9Y566): below the threshold
3 | SGDGKTSVWI [GJC1, P36383] | 4.44 | below the threshold | 3.98 | below the threshold | below the threshold | below the threshold | below the threshold | below the threshold | below the threshold | below the threshold | below the threshold | below the threshold | below the threshold | below the threshold | below the threshold | 4.33 | 4.11 | below the threshold | 3.48 | below the threshold | pKd (DLG4_2, P78352): 3.51; pKd (MPDZ_12, O75970): 4.1; pKd (MAGI1_1, Q96QZ7): below the threshold; pKd (GRIP1_3, Q9Y3R0): below the threshold; pKd (FRMPD2_3, Q68DX3): below the threshold; pKd (SHANK1, Q9Y566): 3.55
4 | EPAKETTTNV [SLC2A3, P11169] | 3.84 | 4.05 | 3.69 | 3.94 | 3.7 | below the threshold | below the threshold | below the threshold | below the threshold | below the threshold | below the threshold | 3.59 | 3.81 | below the threshold | 4.3 | 3.65 | below the threshold | below the threshold | 3.61 | below the threshold | pKd (DLG4_2, P78352): 4.21; pKd (MPDZ_12, O75970): below the threshold; pKd (MAGI1_1, Q96QZ7): below the threshold; pKd (GRIP1_3, Q9Y3R0): below the threshold; pKd (FRMPD2_3, Q68DX3): below the threshold; pKd (SHANK1, Q9Y566): 3.68
5 | PGKKPEDSRV [SLCO2B1, O94956] | below the threshold | below the threshold | 3.47 | 3.62 | below the threshold | below the threshold | below the threshold | below the threshold | below the threshold | below the threshold | 4.15 | below the threshold | below the threshold | below the threshold | below the threshold | below the threshold | below the threshold | below the threshold | 3.67 | below the threshold | pKd (DLG4_2, P78352): 3.91; pKd (MPDZ_12, O75970): below the threshold; pKd (MAGI1_1, Q96QZ7): below the threshold; pKd (GRIP1_3, Q9Y3R0): below the threshold; pKd (FRMPD2_3, Q68DX3): below the threshold; pKd (SHANK1, Q9Y566): below the threshold
